Consider two substances from patent US9766240B2, “Method of identifying a compound for treating a hypoxic or ischemic related disorder” (Dana Farber Cancer Institute, Inc., priority 2001, dated 2017).

Square brackets hold non-standard residues; d marks the D form. Ends that are not written are not given here. Hyp = O=C(O)[C@@H]1C[C@@H](O)CN1

In one test the target is T1, HIF bound to HA-pVHL (Homo sapiens, UniProt P40337).
T1 construct: expressed in transfected cells; host or cells: ts20 cells stably transfected with pIRES-HA-VHL
The test can be described thus: Peptide elution of HIF coimmunoprecipitated with HA-pVHL from ts20 cells. It counts as binding. As to conditions: 7 μg of peptide in 65 μl PBS. As to the method:
Individual G418-resistant colonies were isolated using cloning cylinders and expanded. Cells producing HA-VHL or HA-VHL (Y98H) were identified by anti-HA immunoblot analysis. […] For the tests shown in FIG. 7C, ts20 cells were grown at the restrictive or permissive temperature for 14 hour, methionine-starved for 90 min, and then grown in the methionine-free media supplemented with ^35S-met ([…]) for 90 min.

The next test has as its target T2, pVHL (Homo sapiens, UniProt P40337).
T2 construct: made in house; host or cells: coupled in vitro transcription/translation (TNT kit, Promega)
The test can be described thus: Binding of 35S-labeled pVHL to immobilized biotinylated HIF (556-575) peptides. As to conditions: peptide on monomeric avidin Sepharose, autoradiography.

T1 sequence (P40337 whole entry): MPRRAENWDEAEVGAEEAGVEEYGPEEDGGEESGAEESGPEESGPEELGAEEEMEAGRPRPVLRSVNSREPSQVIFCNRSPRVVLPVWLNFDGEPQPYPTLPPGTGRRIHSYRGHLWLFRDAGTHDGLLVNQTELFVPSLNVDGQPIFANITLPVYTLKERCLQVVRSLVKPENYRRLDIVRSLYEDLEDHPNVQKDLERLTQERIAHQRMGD
T1 sequence (P62869 whole entry partner): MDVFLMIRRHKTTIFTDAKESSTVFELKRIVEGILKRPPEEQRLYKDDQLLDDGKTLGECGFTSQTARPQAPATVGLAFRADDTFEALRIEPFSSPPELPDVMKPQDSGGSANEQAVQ
T1 sequence (P83940 whole entry partner): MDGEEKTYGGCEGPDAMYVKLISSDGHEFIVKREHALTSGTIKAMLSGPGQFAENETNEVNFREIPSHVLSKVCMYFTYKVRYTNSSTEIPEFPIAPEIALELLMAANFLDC
T2 sequence (P40337 whole entry): as the sequence (P40337 whole entry) above

With “HIF (556-575) Pro564Ala peptide: HIF1α 556-575 peptide with Pro564 replaced by alanine (DLDLEMLAAYIPMDDDFQLR)”, in the test with HIF bound to HA-pVHL, the “elution of HIF bound to HA-pVHL” value was “not eluted”. Regarding “HIF (556-575) peptide with the Leu562Ala substitution and hydroxyproline at residue 564: HIF1α 556-575 peptide, Leu562Ala, hydroxyproline at 564 (DLDLEMAA[Hyp]YIPMDDDFQLR)”, in the test with pVHL, the “binding to pVHL” value is listed as “pVHL bound”.
